# In the RNAGym collection of RNA variant scans (doi:10.7554/elife.80360):
# B1: HDV Ribozyme (parent)
# chain: GGCCGGCAUGGUCCCAGCCUCCUCGCUGGCGCCGGCUGGGCAACAUUCCGAGGGGACCGUCCCCUCGGUAAUGGCGAAUGGGACCCA
# Variants of: B1
# Test: self-cleavage, relative activity (ratio to wild type); higher = more cleavage; co-transcriptional
row,Variant,self-cleavage
1,GGCCGGCAUGGUCCCAGCCUCCGCGCUGGCGCCGGCUGGGCAACAUUCCGAGGGGACCGGCCCCUCGGUAAUGGCGAAUGGGACCCA [U23G U60G],0.665
2,GGCCGGCAUGGUCCCAGCCUCCUAGCUGGCGCCGGCUGGGCAACAUUCCGAGGGGGCCGUCCCCUCGGUAAUGGCGAAUGGGACCCA [C24A A56G],0.404
3,GGCCGGCAUGGUCCCAGCCUCCUAGCUGGCGCCGGCUGGGCAACAUUCCGAGGGGACCGUCCCCUCGGUCAUGGCGAAUGGGACCCA [C24A A70C],0.852
4,GGCCGGCAUGGUCCCAGCCUCCUAGCUGGCGCCGGCUGGGCAACAUUCCGAGGGGACCGUCCCCUCGGUUAUGGCGAAUGGGACCCA [C24A A70U],0.612
5,GGCCGGCAUGGUCCCAGCCUCCUAGCUGGCGCCGGCUGGGCAACAUUCCGAGGGGACCGUCCCCUCGGUAAUGGCGAGUGGGACCCA [C24A A78G],0.492
6,GGCCGGCAUGGUCCCAGCCUCCGCGCUGGCGCCGGCUGGGCAACAUUCCGAGGGGACCGUCCCCUCGGGAAUGGCGAAUGGGACCCA [U23G U69G],0.431
7,GGCCGGCAUGGUCCCAGCCUCCGCGCUGGCGCCGGCUGGGCAACAUUCCGAGGGGACCGUCCCCUCGGAAAUGGCGAAUGGGACCCA [U23G U69A],0.499
8,GGCCGGCAUGGUCCCAGCCUCCUAGCUGGCGCCGGCUGGGCAACAUUCCGAGGGGACCGUCCCCUCGGUAAUGGCGGAUGGGACCCA [C24A A77G],0.256
9,GGCCGGCAUGGUCCCAGCCUCCUAGCUGGCGCCGGCUGGGCAACAUUCCGAGGGGACCGUCCCCUCGGUAAUGGCGUAUGGGACCCA [C24A A77U],0.185
10,GGCCGGCAUGGUCCCAGCCUCCGCGCUGGCGCCGGCUGGGCAACAUGCCGAGGGGACCGUCCCCUCGGUAAUGGCGAAUGGGACCCA [U23G U47G],0.731
11,GGCCGGCAUGGUCCCAGCCUCCGCGCUGGCGCCGGCUGGGCAACAUACCGAGGGGACCGUCCCCUCGGUAAUGGCGAAUGGGACCCA [U23G U47A],0.864
12,GGCCGGCAUGGUCCCAGCCUCCGCGCUGGCGCCGGCUGGGCAACAUCCCGAGGGGACCGUCCCCUCGGUAAUGGCGAAUGGGACCCA [U23G U47C],0.332
13,GGCCGGCAUGGUCCCAGCCUCCUAGUUGGCGCCGGCUGGGCAACAUUCCGAGGGGACCGUCCCCUCGGUAAUGGCGAAUGGGACCCA [C24A C26U],1.05
14,GGCCGGCAUGGUCCCAGCCUCCUAGGUGGCGCCGGCUGGGCAACAUUCCGAGGGGACCGUCCCCUCGGUAAUGGCGAAUGGGACCCA [C24A C26G],0.858
15,GGCCGGCAUGGUCCCAGCCUCCUAGCUGGCGCCGGCUGGGCAGCAUUCCGAGGGGACCGUCCCCUCGGUAAUGGCGAAUGGGACCCA [C24A A43G],0.256
16,GGCCGGCAUGGUCCCAGCCUCCUAGCUGGCGCCGGCUGGGCAUCAUUCCGAGGGGACCGUCCCCUCGGUAAUGGCGAAUGGGACCCA [C24A A43U],0.258

row,Variant,self-cleavage
1,GGCCGGCAUGGUCCCAGCCUCCUAGCUGGCGCCGGCUGGGCUACAUUCCGAGGGGACCGUCCCCUCGGUAAUGGCGAAUGGGACCCA [C24A A42U],0.0639
2,GGCCGGCAUGGUCCCAGCCUCCUAGCUGGCGCCGGCUGGGCGACAUUCCGAGGGGACCGUCCCCUCGGUAAUGGCGAAUGGGACCCA [C24A A42G],0.166
3,GGCCGGCAUGGUCCCAGCCUCCUAGCUGGCGCCGGCUGGGCAACAUUCCGAGGGGACCGUCCCCUCGGUAAUGGCGAAUGGGGCCCA [C24A A83G],0.626
4,GGCCGGCAUGGUCCCAGCCUCCGCGCUGGCGCCGGCUGGGCAACAUUCCGAGGGGACCGUCCCCUCGGUAAAGGCGAAUGGGACCCA [U23G U72A],0.341
5,GGCCGGCAUGGUCCCAGCCUCCGCGCUGGCGCCGGCUGGGCAACAUUCCGAGGGGACCGUCCCCUCGGUAAGGGCGAAUGGGACCCA [U23G U72G],0.214
6,GGCCGGCAUGGUCCCAGCCUCCUAGCUGGCGCCGGCUGGGCAACAUUCCGUGGGGACCGUCCCCUCGGUAAUGGCGAAUGGGACCCA [C24A A51U],0.747
7,GGCCGGCAUGGUCCCAGCCUCCGCGCUGGCGCCGGCUGGGCAACAUUCCGAGGGGACCGUCCCCACGGUAAUGGCGAAUGGGACCCA [U23G U65A],0.886
8,GGCCGGCAUGGUCCCAGCCUCCGCGCUGGCGCCGGCAGGGCAACAUUCCGAGGGGACCGUCCCCUCGGUAAUGGCGAAUGGGACCCA [U23G U37A],0.0678
9,GGCCGGCAUGGUCCCAGCCUCCGCGCUGGCGCCGGCUGGGCAACAAUCCGAGGGGACCGUCCCCUCGGUAAUGGCGAAUGGGACCCA [U23G U46A],0.712
10,GGCCGGCAUGGUCCCAGCCUCCGCGCUGGCGCCGGCUGGGCAACACUCCGAGGGGACCGUCCCCUCGGUAAUGGCGAAUGGGACCCA [U23G U46C],0.462
11,GGCCGGCAUGGUCCCAGCCUCCUAGCUGGCGCCGGCUGGGCAACAUUCCGAGGGGACCGUCCCCUCGGUAAUGGCGAAUGGGACCCC [C24A A87C],0.645
12,GGCCGGCAUGGUCCCAGCCUCCGCGCCGGCGCCGGCUGGGCAACAUUCCGAGGGGACCGUCCCCUCGGUAAUGGCGAAUGGGACCCA [U23G U27C],0.511
13,GGCCGGCAUGGUCCCAGCCUCCUAGCUGGGGCCGGCUGGGCAACAUUCCGAGGGGACCGUCCCCUCGGUAAUGGCGAAUGGGACCCA [C24A C30G],0.089
14,GGCCGGCAUGGUCCCAGCCUCCUAGCUGGUGCCGGCUGGGCAACAUUCCGAGGGGACCGUCCCCUCGGUAAUGGCGAAUGGGACCCA [C24A C30U],0.0723
15,GGCCGGCAUGGUCCCAGCCUCCUAGCUGGCGCCGGCUGGGCAACGUUCCGAGGGGACCGUCCCCUCGGUAAUGGCGAAUGGGACCCA [C24A A45G],0.898
16,GGCCGGCAUGGUCCCAGCCUCCUAGCUGGCGCCGGCUGGGCAACUUUCCGAGGGGACCGUCCCCUCGGUAAUGGCGAAUGGGACCCA [C24A A45U],0.541
